B1: Zinc-dependent sulfurtransferase SufU (Bacillus subtilis), O32163 (parent)
chain: MSFNANLDTLYRQVIMDHYKNPRNKGVLNDSIVVDMNNPTCGDRIRLTMKLDGDIVEDAKFEGEGCSISMASASMMTQAIKGKDIETALSMSKIFSDMMQGKEYDDSIDLGDIEALQGVSKFPARIKCATLSWKALEKGVAKEEGGN

Variants of: B1
Settings: with sufs_bacsu sufS

Row | effect of a mutation on the interaction | Variant
1 | disrupting interaction | MSFNANLDTLYRQVIMDHYKNPRNKGVLNDSIVVDMNNPTCGDRIRLTMKLDGDIVEDAKFEGEGCSISMASASMMTQAIKGKDIETALSMSKIFSDMMQGKEYDDSIDLGDIEALQGVSKFPARIKAATLSWKALEKGVAKEEGGN

Variants of: B1
Settings: with sufs_bacsu sufS
Remark: another data set of the same source

Row | effect of a mutation on the interaction | Variant
2 | disrupting interaction | MSFNANLDTLYRQVIMDHYKNPRNKGVLNDSIVVDMNNPTCGDRIRLTMKLDGDIVEDAKFEGEGASISMASASMMTQAIKGKDIETALSMSKIFSDMMQGKEYDDSIDLGDIEALQGVSKFPARIKCATLSWKALEKGVAKEEGGN

Variants of: B1
Settings: with sufs_bacsu sufS
Remark: another data set of the same source

Row | effect of a mutation on the interaction | Variant
3 | disrupting interaction | MSFNANLDTLYRQVIMDHYKNPRNKGVLNDSIVVDMNNPTAGDRIRLTMKLDGDIVEDAKFEGEGCSISMASASMMTQAIKGKDIETALSMSKIFSDMMQGKEYDDSIDLGDIEALQGVSKFPARIKCATLSWKALEKGVAKEEGGN

Variants of: B1
Settings: with sufs_bacsu sufS
Remark: another data set of the same source

Row | effect of a mutation on the interaction | Variant
4 | increasing interaction | MSFNANLDTLYRQVIMDHYKNPRNKGVLNDSIVVDMNNPTAGDRIRLTMKLDGDIVEDAKFEGEGCSISMASASMMTQAIKGKDIETALSMSKIFSDMMQGKEYDDSIDLGDIEALQGVSKFPARIKCATLSWKALEKGVAKEEGGN

From IntAct's records for PubMed 21236255
